In patent US20140072613A1 (published 2014):

T1: PKCε(h) (human, UniProt Q02156 1-737)
T1 sequence (looked up): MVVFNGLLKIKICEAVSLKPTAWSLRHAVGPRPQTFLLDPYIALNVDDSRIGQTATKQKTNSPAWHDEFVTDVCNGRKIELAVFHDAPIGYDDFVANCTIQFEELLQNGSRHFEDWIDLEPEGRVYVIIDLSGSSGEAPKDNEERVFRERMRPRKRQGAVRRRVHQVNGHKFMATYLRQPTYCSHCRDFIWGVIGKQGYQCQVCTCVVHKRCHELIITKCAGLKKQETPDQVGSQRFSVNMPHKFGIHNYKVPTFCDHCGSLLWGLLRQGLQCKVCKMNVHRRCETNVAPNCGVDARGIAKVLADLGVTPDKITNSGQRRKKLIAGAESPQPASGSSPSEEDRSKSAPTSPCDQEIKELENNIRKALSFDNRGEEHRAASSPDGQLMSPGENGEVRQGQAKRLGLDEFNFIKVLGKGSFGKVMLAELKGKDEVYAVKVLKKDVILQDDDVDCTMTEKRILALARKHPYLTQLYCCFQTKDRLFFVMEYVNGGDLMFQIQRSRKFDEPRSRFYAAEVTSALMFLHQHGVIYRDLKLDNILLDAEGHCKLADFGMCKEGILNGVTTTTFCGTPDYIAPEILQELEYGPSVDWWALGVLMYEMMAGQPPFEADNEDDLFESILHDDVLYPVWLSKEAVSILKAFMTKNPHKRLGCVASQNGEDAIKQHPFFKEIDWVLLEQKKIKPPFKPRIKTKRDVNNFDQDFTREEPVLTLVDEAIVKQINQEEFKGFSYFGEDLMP

T2: BrSK1(h) (human, UniProt Q8TDC3 1-778, limits assumed)
T2 sequence (looked up): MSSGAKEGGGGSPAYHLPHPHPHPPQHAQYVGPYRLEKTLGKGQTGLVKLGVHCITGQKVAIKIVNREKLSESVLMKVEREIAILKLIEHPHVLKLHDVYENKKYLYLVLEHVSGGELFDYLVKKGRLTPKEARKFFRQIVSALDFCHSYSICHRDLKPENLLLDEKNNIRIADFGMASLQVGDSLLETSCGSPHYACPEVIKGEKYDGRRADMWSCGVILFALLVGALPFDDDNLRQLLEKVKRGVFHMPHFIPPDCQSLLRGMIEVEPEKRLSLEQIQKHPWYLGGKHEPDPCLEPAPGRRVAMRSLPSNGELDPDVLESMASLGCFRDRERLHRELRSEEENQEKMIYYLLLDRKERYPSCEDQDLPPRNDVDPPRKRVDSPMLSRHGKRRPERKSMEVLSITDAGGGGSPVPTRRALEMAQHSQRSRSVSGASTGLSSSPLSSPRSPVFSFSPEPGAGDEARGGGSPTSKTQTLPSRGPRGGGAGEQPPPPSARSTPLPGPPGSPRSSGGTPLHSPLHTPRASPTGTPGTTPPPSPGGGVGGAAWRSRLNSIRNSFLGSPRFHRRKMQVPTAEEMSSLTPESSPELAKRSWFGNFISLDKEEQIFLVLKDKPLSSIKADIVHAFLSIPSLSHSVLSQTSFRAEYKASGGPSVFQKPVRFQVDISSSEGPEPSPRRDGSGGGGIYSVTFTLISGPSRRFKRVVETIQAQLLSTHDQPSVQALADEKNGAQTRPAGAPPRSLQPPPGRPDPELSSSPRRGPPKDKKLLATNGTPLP

T3: CaMKIV(h) (human, UniProt Q16566 1-473)
T3 sequence (looked up): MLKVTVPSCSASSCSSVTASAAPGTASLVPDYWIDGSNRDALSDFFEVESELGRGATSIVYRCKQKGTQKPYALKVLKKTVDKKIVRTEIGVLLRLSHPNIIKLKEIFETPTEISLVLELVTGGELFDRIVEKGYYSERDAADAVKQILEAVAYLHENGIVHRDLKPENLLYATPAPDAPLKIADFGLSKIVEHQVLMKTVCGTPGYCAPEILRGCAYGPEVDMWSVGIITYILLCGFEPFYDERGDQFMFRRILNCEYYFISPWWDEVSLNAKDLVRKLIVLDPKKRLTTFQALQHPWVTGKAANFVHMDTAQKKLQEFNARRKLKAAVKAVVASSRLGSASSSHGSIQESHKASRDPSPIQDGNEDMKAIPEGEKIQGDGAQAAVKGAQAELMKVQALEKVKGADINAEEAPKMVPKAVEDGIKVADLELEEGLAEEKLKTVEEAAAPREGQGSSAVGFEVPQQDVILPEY

T4: EphB3(h) (human, UniProt P54753 581-998, limits assumed)
T4 sequence (looked up): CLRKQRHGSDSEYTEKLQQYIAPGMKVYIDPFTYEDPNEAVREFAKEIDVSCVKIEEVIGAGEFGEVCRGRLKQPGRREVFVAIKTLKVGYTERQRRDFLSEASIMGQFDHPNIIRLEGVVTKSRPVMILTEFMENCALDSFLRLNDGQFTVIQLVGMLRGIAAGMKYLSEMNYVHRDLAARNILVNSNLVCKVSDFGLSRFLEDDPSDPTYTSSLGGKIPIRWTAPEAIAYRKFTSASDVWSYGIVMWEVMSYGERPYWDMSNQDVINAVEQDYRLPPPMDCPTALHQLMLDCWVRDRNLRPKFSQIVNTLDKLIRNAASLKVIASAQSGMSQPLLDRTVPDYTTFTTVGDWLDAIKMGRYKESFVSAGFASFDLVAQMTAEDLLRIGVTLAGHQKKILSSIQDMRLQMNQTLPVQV


Columns and labels:
Assay in all cases: cell-based or functional assay
Flt4(h) = Flt4(h) (human, UniProt P35916 800-1363, limits assumed)
PKCε(h) = target: T1, PKCε(h)
BrSK1(h) = target: T2, BrSK1(h)
CaMKIV(h) = target: T3, CaMKIV(h)
CHK2(h) = CHK2(h) (human, UniProt O96017 5-543, limits assumed)
cKit(V654A)(h) = cKit(V654A)(h) (human, UniProt P10721 544-976)
EphB3(h) = target: T4, EphB3(h)

Chain of Flt4(h) (P35916 800-1363 limits assumed): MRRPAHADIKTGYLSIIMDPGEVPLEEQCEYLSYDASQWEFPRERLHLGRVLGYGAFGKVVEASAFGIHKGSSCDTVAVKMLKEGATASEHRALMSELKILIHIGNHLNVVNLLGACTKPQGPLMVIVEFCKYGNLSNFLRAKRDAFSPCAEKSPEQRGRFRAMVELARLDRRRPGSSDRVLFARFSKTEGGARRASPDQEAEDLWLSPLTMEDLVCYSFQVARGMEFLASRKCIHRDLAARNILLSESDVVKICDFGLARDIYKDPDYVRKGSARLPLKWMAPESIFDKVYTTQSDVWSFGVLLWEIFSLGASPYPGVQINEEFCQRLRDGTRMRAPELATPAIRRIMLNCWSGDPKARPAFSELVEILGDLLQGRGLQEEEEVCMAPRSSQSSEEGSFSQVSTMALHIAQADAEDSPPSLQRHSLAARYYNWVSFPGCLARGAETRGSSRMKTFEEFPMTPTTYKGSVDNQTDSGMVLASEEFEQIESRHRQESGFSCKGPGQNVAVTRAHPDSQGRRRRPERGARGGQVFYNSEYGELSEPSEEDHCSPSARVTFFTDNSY
Chain of cKit(V654A)(h) (P10721 544-976 V654A): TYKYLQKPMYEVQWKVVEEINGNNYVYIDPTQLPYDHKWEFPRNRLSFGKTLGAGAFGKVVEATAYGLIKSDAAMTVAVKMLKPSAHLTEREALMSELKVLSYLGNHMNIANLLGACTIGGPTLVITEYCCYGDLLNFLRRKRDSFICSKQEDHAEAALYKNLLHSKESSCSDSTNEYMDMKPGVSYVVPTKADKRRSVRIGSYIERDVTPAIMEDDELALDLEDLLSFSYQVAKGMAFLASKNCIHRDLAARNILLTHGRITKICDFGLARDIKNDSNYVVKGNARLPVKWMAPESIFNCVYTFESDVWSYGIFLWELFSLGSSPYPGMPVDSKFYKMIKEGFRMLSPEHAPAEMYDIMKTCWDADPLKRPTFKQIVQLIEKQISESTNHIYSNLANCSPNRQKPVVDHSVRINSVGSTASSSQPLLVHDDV
Chain of CHK2(h) (O96017 5-543 limits assumed): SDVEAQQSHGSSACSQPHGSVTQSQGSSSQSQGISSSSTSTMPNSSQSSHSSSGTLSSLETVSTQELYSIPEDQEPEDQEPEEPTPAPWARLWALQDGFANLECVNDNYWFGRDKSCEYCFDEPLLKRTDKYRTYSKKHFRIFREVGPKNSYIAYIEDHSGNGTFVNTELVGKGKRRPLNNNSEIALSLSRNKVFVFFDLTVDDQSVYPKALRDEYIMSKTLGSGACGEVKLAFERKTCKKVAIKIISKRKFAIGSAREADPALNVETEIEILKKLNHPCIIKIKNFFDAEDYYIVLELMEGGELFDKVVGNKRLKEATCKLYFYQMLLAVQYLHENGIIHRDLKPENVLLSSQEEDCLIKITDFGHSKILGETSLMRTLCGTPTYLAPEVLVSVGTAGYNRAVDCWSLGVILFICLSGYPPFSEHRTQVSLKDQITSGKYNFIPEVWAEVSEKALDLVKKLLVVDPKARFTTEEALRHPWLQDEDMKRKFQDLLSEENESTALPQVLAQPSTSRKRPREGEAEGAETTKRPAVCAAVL

Row | Binder | % activity, 100 µM (Flt4(h)) [%] | % activity, 100 µM (PKCε(h)) [%] | % activity, 100 µM (BrSK1(h)) [%] | % activity, 100 µM (CaMKIV(h)) [%] | % activity, 100 µM (CHK2(h)) [%] | % activity, 100 µM (cKit(V654A)(h)) [%] | % activity, 100 µM (EphB3(h)) [%]
1 | KAFAKLAARLYRKALARQLGVAA [MMI-0400] | 89 | 59 | 76 | 18 | 54 | 150 | 47
2 | FAKLAARLYRKALARQLGVAA [MMI-0300] | 83 | 79 | 67 | 17 | 66 | 134 | 62
